Laboratory results taken from IntAct's records for PubMed 23063561.

B1: 1-phosphatidylinositol 4,5-bisphosphate phosphodiesterase gamma-1 (Homo sapiens), P19174 (parent)
chain: MAGAASPCANGCGPGAPSDAEVLHLCRSLEVGTVMTLFYSKKSQRPERKTFQVKLETRQITWSRGADKIEGAIDIREIKEIRPGKTSRDFDRYQEDPAFRPDQSHCFVILYGMEFRLKTLSLQATSEDEVNMWIKGLTWLMEDTLQAPTPLQIERWLRKQFYSVDRNREDRISAKDLKNMLSQVNYRVPNMRFLRERLTDLEQRSGDITYGQFAQLYRSLMYSAQKTMDLPFLEASTLRAGERPELCRVSLPEFQQFLLDYQGELWAVDRLQVQEFMLSFLRDPLREIEEPYFFLDEFVTFLFSKENSVWNSQLDAVCPDTMNNPLSHYWISSSHNTYLTGDQFSSESSLEAYARCLRMGCRCIELDCWDGPDGMPVIYHGHTLTTKIKFSDVLHTIKEHAFVASEYPVILSIEDHCSIAQQRNMAQYFKKVLGDTLLTKPVEISADGLPSPNQLKRKILIKHKKLAEGSAYEEVPTSMMYSENDISNSIKNGILYLEDPVNHEWYPHYFVLTSSKIYYSEETSSDQGNEDEEEPKEVSSSTELHSNEKWFHGKLGAGRDGRHIAERLLTEYCIETGAPDGSFLVRESETFVGDYTLSFWRNGKVQHCRIHSRQDAGTPKFFLTDNLVFDSLYDLITHYQQVPLRCNEFEMRLSEPVPQTNAHESKEWYHASLTRAQAEHMLMRVPRDGAFLVRKRNEPNSYAISFRAEGKIKHCRVQQEGQTVMLGNSEFDSLVDLISYYEKHPLYRKMKLRYPINEEALEKIGTAEPDYGALYEGRNPGFYVEANPMPTFKCAVKALFDYKAQREDELTFIKSAIIQNVEKQEGGWWRGDYGGKKQLWFPSNYVEEMVNPVALEPEREHLDENSPLGDLLRGVLDVPACQIAIRPEGKNNRLFVFSISMASVAHWSLDVAADSQEELQDWVKKIREVAQTADARLTEGKIMERRKKIALELSELVVYCRPVPFDEEKIGTERACYRDMSSFPETKAEKYVNKAKGKKFLQYNRLQLSRIYPKGQRLDSSNYDPLPMWICGSQLVALNFQTPDKPMQMNQALFMTGRHCGYVLQPSTMRDEAFDPFDKSSLRGLEPCAISIEVLGARHLPKNGRGIVCPFVEIEVAGAEYDSTKQKTEFVVDNGLNPVWPAKPFHFQISNPEFAFLRFVVYEEDMFSDQNFLAQATFPVKGLKTGYRAVPLKNNYSEDLELASLLIKIDIFPAKENGDLSPFSGTSLRERGSDASGQLFHGRAREGSFESRYQQPFEDFRISQEHLADHFDSRERRAPRRTRVNGDNRL

Variants of: B1
Conditions: with fgfr1_human FGFR1, P11362
Sequence of fgfr1_human FGFR1, P11362 (P11362 whole entry, looked up): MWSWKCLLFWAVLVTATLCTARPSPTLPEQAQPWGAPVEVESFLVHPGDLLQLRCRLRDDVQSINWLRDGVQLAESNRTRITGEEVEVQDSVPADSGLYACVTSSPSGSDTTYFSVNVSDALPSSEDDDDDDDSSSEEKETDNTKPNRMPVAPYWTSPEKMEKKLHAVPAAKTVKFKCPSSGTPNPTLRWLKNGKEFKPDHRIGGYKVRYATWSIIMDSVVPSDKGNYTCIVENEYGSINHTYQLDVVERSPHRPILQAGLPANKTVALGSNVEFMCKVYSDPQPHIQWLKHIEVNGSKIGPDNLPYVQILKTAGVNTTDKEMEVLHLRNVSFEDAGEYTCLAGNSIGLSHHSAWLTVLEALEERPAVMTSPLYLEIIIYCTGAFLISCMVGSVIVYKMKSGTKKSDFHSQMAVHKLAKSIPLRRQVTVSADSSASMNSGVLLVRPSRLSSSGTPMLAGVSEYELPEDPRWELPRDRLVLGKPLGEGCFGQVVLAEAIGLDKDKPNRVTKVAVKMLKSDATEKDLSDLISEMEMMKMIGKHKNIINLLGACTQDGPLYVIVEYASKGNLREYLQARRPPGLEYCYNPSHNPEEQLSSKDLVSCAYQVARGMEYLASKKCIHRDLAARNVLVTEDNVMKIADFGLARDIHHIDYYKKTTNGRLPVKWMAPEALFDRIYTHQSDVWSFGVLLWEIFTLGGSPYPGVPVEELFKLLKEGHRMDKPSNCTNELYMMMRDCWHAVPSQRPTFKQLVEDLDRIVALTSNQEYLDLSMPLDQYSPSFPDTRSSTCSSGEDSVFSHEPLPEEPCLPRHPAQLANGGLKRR

Variant | effect of a mutation on the interaction
R586L | disrupting interaction strength

Variants of: B1
Conditions: with fgfr1_human FGFR1, P11362
Remark: another data set of the same source

Variant | effect of a mutation on the interaction
Y783F | increasing interaction strength
